The assay deals with Adenovirus 5 receptor (cell surface fiber receptor on HeLa cells). In words: cell-based or functional assay.

In turn, “Adenovirus 5 fiber protein (from UniProt P11818 1-581) (ligand)” had a percentage of adenoviral transduction of HeLa cells by Av1LacZ4 (β-galactosidase positive cells) after preincubation with competitor fiber of 0.1 to 1 pg/mL.

Values taken from patent publication US20040175364A1.
